Reference: the supplement of paper PMC9170038

Tested on: MS2 coat protein
Assay: apparent KD of MS2 coat protein; designed switch direction (-1 OFF switch, 1 ON switch): -1; higher = weaker reporter binding
Outline: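 The buffer was Tris-HCl pH 7.5 with KCl, MgCl2, BSA, DTT, tRNA and Tween-20. In it, SNAP-549-labelled MS2 coat protein was titrated in doubling steps from 0.7 or 1.5 nM to 3 µM over chip-bound RNA switches transcribed by stalled E. coli RNA polymerase on Illumina chips. Apparent KD is the per-design median over clusters of curve fits to normalised fluorescence.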

[1] = Eterna round: R95, input ligand: FMN 200 uM
[2] = Eterna round: R95, input ligand: microRNA oligo, concentration not stated
[3] = Eterna round: R95, input ligand: none
[4] = input ligand: microRNA oligo, concentration not stated

Row | Sequence | apparent KD of MS2 coat protein [1] | apparent KD of MS2 coat protein [2] | apparent KD of MS2 coat protein [3] | apparent KD of MS2 coat protein (input ligand: FMN 200 uM) | apparent KD of MS2 coat protein (input ligand: none) | apparent KD of MS2 coat protein [4]
1 | GAUUAUGCGAGCUUUAGGGACAUGAGGAUCACCCAUGUUCGUCUUGUUGAUCUAGGUGCACUAACAUACCUAAAUCU [JMF 33] (puzzle: Sensor v3, turn-off variant 1) | 24.7 nM | 28.7 nM | 22.6 nM | – | – | –
2 | ACAAGCUUUGUUGUGGGUGACAUGAGGAUCACCCAUGUUUGCCACGUCUUGUGGGCCCGGGCCCGCGGCCCGGGCCC [-42.9, -63.9, A 13%] (Eterna round: R97, puzzle: Sensor, turn-off variant 1) | – | – | – | 50.3 nM | 55.1 nM | –
3 | ACAUGUAAUGCAGGAUAUUUUACACAUGAGGAUCACCCAUGUGACCAGAGGAAUUGCUAUGAGUAGAAGAAGGGUAUGUACAUG [Ex NG2 #56] (Eterna round: R96, puzzle: Exclusion NG 2) | – | – | – | 78.8 nM | 64.4 nM | 56.7 nM
4 | AAAUCGGUAGAGGAUAUUGUACAGGAAACGGUGCGAGAAGGUUACACAUGAGGAUCACCCAUGUUAAAUAGCGA [EX6 #54] (Eterna round: R97, puzzle: Exclusion 6) | – | – | – | 17.9 nM | 18.4 nM | –
5 | GACCAGGAAGGAUAUACAUACGGUUCGUGCCUUGGGCUGCGACAUGAGGAUCACCCAUGUAGAAGGUCCAGGUC [EX2 B.18] (Eterna round: R97, puzzle: Exclusion 2) | – | – | – | 47.1 nM | 18.6 nM | –
6 | AGUAGUAGUAUCCGAUCCUACAUGAGGAUCACCCAUGUAGCUAGACGUGCACGCGAUGCUCGUCAGACUGCCAGAUG [salish99_TOv1_r3_049] (puzzle: Sensor v3, turn-off variant 1) | 95.4 nM | 97.8 nM | 128 nM | – | – | –
7 | GGUCAAGAACAGCUCCGCGCUGUCCUUGACCGCUCAUUUACAUGAGGAUCACCCAUGUUUUUUGCUUGUCUUGUUUC [Estetexequ] (puzzle: Sensor v3, turn-off variant 2) | 21 nM | 98.7 nM | 23.8 nM | – | – | –
8 | CCAUGGGAGCGAGGAUAUAGCCCAUGGGAAGAACUAGAAGGCGCAGACAUGAGGAUCACCCAUGUGUUCAUGAGGAGGUGGACA (Eterna round: R96, puzzle: Exclusion NG 1) | – | – | – | 153 nM | 121 nM | 82.6 nM
9 | AGCUGUGGCCGAGGAUAUCCACAUGAGGAUCACCCAUGUUGAUACGCCGUUAAAGGCGAUAUAAGGGAGAAGGCGGUCUCAGCA [Eli eng2 - 051] (Eterna round: R96, puzzle: Exclusion NG 2) | – | – | – | 12.5 nM | 9.26 nM | 7.18 nM
10 | ACACAACAUGAGGAUCACCCAUGUCAGGAUAUGCAGAAGAAGAAGAAGAGAAGAGAGAGCAGAAGGGACAACAC [Ex 1 M3] (puzzle: Exclusion 1) | 41.7 nM | 30 nM | 33.5 nM | – | – | –
11 | CUAAUACAUCAGGAUAUGUGUCAUUAUAGCGACACAGAAGGGAUGACAUGAGGAUCACCCAUGUCAAAGGGUGA [eternacac ex6r4 sub22] (Eterna round: R97, puzzle: Exclusion 6) | – | – | – | 85.4 nM | 639 nM | –
12 | AUUGUUUAUGUAGGAUAUGCCUGGCGUGCCUUUGCAGAAGGACAUGAGGAUCACCCAUGUAACAUGAGGCUCACCCAUGUCGCU [salish99_ExNG1_r04_112] (Eterna round: R96, puzzle: Exclusion NG 1) | – | – | – | 432 nM | 311 nM | 220 nM
13 | CCGGCUGCUGUGAGGAUAUGCCUGUGGGCCCGCGGGCAGAAGGCACAUGAGGAUCACCCAUGUCCUGCGGUCCC [salish99_bmx4_r4_117] (Eterna round: R97, puzzle: Brourd's mod of Exclusion 4) | – | – | – | 35 nM | 33.5 nM | –
14 | UUAGUGUUAGGAUAUCCGGCUCCAAGGCACCAAAACCGGGCGGAGAAGGAACAUGAGGAUCACCCAUGUGACCA [Eternabot (Original) Solution 31] (Eterna round: R97, puzzle: Exclusion 4) | – | – | – | 53.7 nM | 49.1 nM | –
15 | UUUUUAGUGCUUUUUAAGUACAUGAGGAUCACCCAUGUACUUGUCUGGUGGUCCGGACAAGCUUUUUGCUCGUCUAG [Sensor v3 - turn-off variant 1 - 3] (Eterna round: R96, puzzle: Sensor v3, turn-off variant 1) | – | – | – | 35.6 nM | 35.8 nM | 27.4 nM
16 | GCCGGUGAUCUAACCCGUAACAUGAGGAUCACCCAUGUAAGCUCGGGUUCUACAGAACCCGAUAUUAGCUCGUCAGU [Eternabot (Original) Solution 3] (Eterna round: R97, puzzle: Sensor, turn-off variant 1) | – | – | – | 599 nM | 894 nM | –
17 | GGAGGAGGAGUGAGGAUAUGGUGGUGGAAACACCACCAGAAGGCACAUGAGGAUCACCCAUGUGAUGUAGAGAA [AK-MS2ROC-r4-Bmoexclusion4-16] (Eterna round: R97, puzzle: Brourd's mod of Exclusion 4) | – | – | – | 27.4 nM | 16 nM | –
18 | CAGUACUGAGGAUAUACAUGAGGAUCACCCAUGUGUUCCAGCUAGGAAACUGGCAAAAGUAGAAGGCAGUACUG [salish99_ex3_r3_070] (puzzle: Exclusion 3) | – | 21.6 nM | – | – | – | –
19 | GGUGCGUAUGUGAGGAUAUGCUGGUCCUUGGGUCAGCAGAAGGCACAUGAGGAUCACCCAUGUGGUGUCGUACC [salish99_Bmod_Ex4_026] (puzzle: Brourd's mod of Exclusion 4) | 20.3 nM | 345 nM | 344 nM | – | – | –
20 | UGAUCUAGGCGAGGAUAUACAUGAGGAUCACCCAUGUAAACGUGACAUGGAAACAUGUCACGUGUGUAGAAGGCGCCUAGAUCU [MOD2 ENG2 3.54 by JL] (Eterna round: R96, puzzle: Exclusion NG 2) | – | – | – | 15.7 nM | 13.2 nM | 10.8 nM
21 | UACCUAAUGGGUGUUUCUCACAUGAGGAUCACCCAUGUCACUAGCUUUUUGCUCAUCUUAUCGAAACACCCUUAGUC [Birerage] (puzzle: Sensor v3, turn-off variant 1) | 21.3 nM | 10.2 nM | 20.8 nM | – | – | –
22 | CUGAGCAGACGGAGAUCCAACAUGAGGAUCACCCAUGUCUCAAAAGCUUUUUGCUCGUCUUACCCUCCUCUGCUCUC [Ticeisor] (puzzle: Sensor v3, turn-off variant 1) | 19.1 nM | 40.3 nM | 15.1 nM | – | – | –
23 | AACGUGUAAGGAUAUCUGCUUAUGCUCAGCGAUACGCUGAUAGAGAAGGUACAUGAGGAUCACCCAUGUUCCAA [EX4 A.17] (Eterna round: R97, puzzle: Exclusion 4) | – | – | – | 20.4 nM | 17.5 nM | –
24 | AGAAAACAUGAGGAUCACCCAUGUGAGGAUAUCGCGCUUAACAGGGUCACAGUGGUGUCGAGAAGGUGCCUGGG [Eternabot (L1) Solution 55] (Eterna round: R97, puzzle: Exclusion 1) | – | – | – | 144 nM | 66.3 nM | –
